From paper PMC7910607, “Structure-guided insights into heterocyclic ring-cleavage catalysis of the non-heme Fe (II) dioxygenase NicX” (Nature Communications, 2021)

Experiments:
[1] = biological target: T1, NicX (2,5-dihydroxypyridine dioxygenase) (Pseudomonas putida, UniProt Q88FY1); experiment: X-ray crystal structure, […] Å, soaked crystals; format: binding; conditions: soaked with 5 mM Fe2+, then 5 mM DHP and 20 mM sodium dithionite
T1 construct: full-length WT in pET-24a, C-terminal 6xHis tag, E. coli BL21(DE3), ~39 kDa, homohexamer, mononuclear Fe(II); domains residues 2-151 and 152-350
T1 sequence (Q88FY1 1-350): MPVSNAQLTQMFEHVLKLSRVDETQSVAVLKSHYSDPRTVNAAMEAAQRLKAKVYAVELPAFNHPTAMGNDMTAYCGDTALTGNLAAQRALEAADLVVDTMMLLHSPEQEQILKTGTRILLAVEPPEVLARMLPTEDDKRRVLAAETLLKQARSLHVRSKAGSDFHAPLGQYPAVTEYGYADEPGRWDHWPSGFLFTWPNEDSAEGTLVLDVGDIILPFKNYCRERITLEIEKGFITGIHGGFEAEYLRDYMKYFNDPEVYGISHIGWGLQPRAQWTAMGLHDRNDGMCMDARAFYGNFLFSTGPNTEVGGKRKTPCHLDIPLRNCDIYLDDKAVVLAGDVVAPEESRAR

Oc1ccc(O)nc1 = tested on: T2, Oc1ccc(O)nc1; experiment: purified protein; format: biochemical, Pseudomonas putida; conditions: 20 mM Tris-HCl pH 8.0, 50 µM FeCl2, 25 °C, O2 (air)
T2 construct: full-length WT in pET-24a, C-terminal 6xHis tag, E. coli BL21(DE3), ~39 kDa, homohexamer, mononuclear Fe(II); domains residues 2-151 and 152-350

purified protein = substrate: Oc1ccc(O)nc1; experiment: purified protein; format: biochemical, Pseudomonas putida; conditions: 20 mM Tris-HCl pH 8.0, 50 µM FeCl2, 25 °C, O2 (air)
[2] = biological target: the molecule itself; experiment: crystal structure; hanging-drop vapor diffusion at 20 °C, 20% PEG 3350, pH 7.0; six molecules in the asymmetric unit; also crystals soaked with Fe2+ and DHP

With `Oc1ccc(O)nc1` [DHP, 2,5-dihydroxypyridine] the “X-ray crystal structure, 2.20 Å, soaked crystals” value ([1]; active site of subunits C, D, E, F) was “four subunits (C, D, E, and F) of the six constituent molecules”.

For `O=CNC(=O)/C=C\C(=O)O` [NFM, N-formylmaleamic acid], the “X-ray crystal structure, 2.20 Å, soaked crystals” value ([1]; active site of subunits A and B, formed in crystal from DHP) was “the other subunits (A and B) contain the product NFM”.

“NicX (2,5-dihydroxypyridine dioxygenase) (Pseudomonas putida KT2440; E308A)” showed a Km (Oc1ccc(O)nc1) of 95.85 ± 3.68 µM.

“NicX (2,5-dihydroxypyridine dioxygenase) (Pseudomonas putida KT2440; V175F)” showed a Km (Oc1ccc(O)nc1) of 117.9 ± 3.68 µM.

B1: NicX (2,5-dihydroxypyridine dioxygenase) (Pseudomonas putida KT2440) (protein)
chain: T1 sequence (Q88FY1 1-350)
notes: full-length WT in pET-24a, C-terminal 6xHis tag, E. coli BL21(DE3), ~39 kDa, homohexamer, mononuclear Fe(II); domains residues 2-151 and 152-350
In the case of B1, the Km (purified protein) is reported as 94.9 ± 3.84 µM.

B2: 2,5-Dihydroxypyridine dioxygenase (NicX) from Pseudomonas putida KT2440 (enzyme, UniProt Q88FY1 1-350, looked up)
chain: T1 sequence (Q88FY1 1-350)
notes: NicX, 2,5-dihydroxypyridine dioxygenase of Pseudomonas putida KT2440, full-length wild type; residues 2-350 described in the structure; Cloned into pET-24a between NdeI and HindIII with a C-terminal His tag; in PDB 7CN3 the crystals were soaked with Fe2+ and DHP (subunits C-F hold DHP, A and B hold NFM); also called WT NicX; wild type NicX; source: E. coli BL21(DE3), purified (Ni-NTA, Superdex200 …)
B2 was tested, and the “stoichiometry N” value [2] was 6.

B3: SeMet-substituted NicX (enzyme, Pseudomonas putida KT2440, UniProt Q88FY1 1-350, looked up)
chain: T1 sequence (Q88FY1 1-350)
modifications: selenomethionine (SeMet) substituted
notes: NicX, 2,5-dihydroxypyridine dioxygenase of Pseudomonas putida KT2440, selenomethionine-substituted form of the full-length construct; Same construct as m1, expressed with selenomethionine for SAD phasing; also called SeMet-NicX; Se-NicX; source: E. coli B834(DE3) in M9 minimal media, purified (Ni-NTA, Superdex200 gel filtration)
B3: binds [2].
